Read-outs that look alike come from different tables or passages of the source.
Tests used:
[1] = molecular target: gp100 154-162 epitope …; assay: cell-based or functional assay
[2] = molecular target: gp100 154-162 epitope-analogue …; assay: cell-based or functional assay
[3] = molecular target: gp100 280-288 …; assay: cell-based or functional assay
[4] = molecular target: Melan-A/MART-1 27-35 epitope …; assay: cell-based or functional assay
[5] = molecular target: Melan-A/MART-1 27-35 epitope-analogue AIGIGLTV (SEQ ID NO: 30); assay: cell-based or functional assay
[6] = molecular target: gp100 280-288 …; assay: cell-based or functional assay; remark: listed apart in the source
[7] = molecular target: T1, HLA-A*0201 (human); assay: T2 cell HLA-A*0201 stabilization, flow cytometry with mAb BB7.2
T1 construct: also called HLA-A2.1; HLA-A2

[8] = molecular target: T1, HLA-A*0201; assay: as above; remark: listed apart in the source
Procedure: (§1) Briefly, peptides were diluted from DMSO stocks to various concentrations (final DMSO concentration 0.5%) and were incubated together with 10⁵ T2 cells for 14 hours at 37° C., 5% CO₂ in serum-free Iscoves medium in a volume of 100 ml in the presence of 3 mg/ml human β2-microglobulin (Sigma, St Louis, Mo.). […] The Fluorescence Index is expressed as: (experimental mean fluorescence÷background mean fluorescence)−1.
(§2) ^aBinding of peptides to HLA-A2.1 was analyzed using the processing-defective T2 cell line at the indicated peptide concentrations.

[9] = molecular target: T1, HLA-A*0201; assay: as above; remark: listed apart in the source
Procedure: as §1, §2

[10] = molecular target: T1, HLA-A*0201; assay: decay of cell-surface HLA-A*0201-peptide complexes at 37 C on emetine-pretreated B-LCL, flow cytometry
Procedure: Measurement of MHC-peptide complex stability was performed. […] The cells were then mild-acid treated and subsequently loaded with 200 mM of peptide for 1 hour at room temperature. Thereafter, the cells were washed twice to remove free peptide and were incubated at 37° C. for 0, 2, 4 and 6 hours.

[11] = molecular target: T1, HLA-A*0201; assay: competition with 150 nM FL-labeled reference peptide on mild-acid treated HLA-A*0201+ JY B-LCL at 4 C, flow cytometry
Source text: Subsequently, the cells were washed, fixed with paraformaldehyde and analyzed by flow cytometry. […] The binding capacity of competitor peptides is expressed as the concentration needed to inhibit 50% of binding of the FL-labeled reference peptide (IC₅₀).

## T-cell receptor of gp100-reactive TIL 1200 lymphocytes (TCR)
[1]
  % specific lysis by TIL 1200 of T2 target cells preincubated with 1 µM peptide, E:T 20:1 (% specific lysis): 67
[2]
  peptide titration, sensitization of T2 target cells for lysis by TIL 1200 (FIG. 1) (fold lower concentration than wild type): 10
  peptide titration, sensitization of T2 target cells for lysis by TIL 1200 (FIG. 2) (fold lower concentration than wild type): 10
[3]
  % specific lysis by TIL 1200 of T2 target cells preincubated with 1 µM peptide, E:T 20:1 (% specific lysis): 3

## T-cell receptor of Melan-A/MART-1 27-35-reactive TIL 1235 lymphocytes (TCR)
[3]
  % specific lysis by TIL 1235 of T2 target cells preincubated with 1 µM peptide, E:T 20:1 (% specific lysis): -3
[4]
  % specific lysis by TIL 1235 of T2 target cells preincubated with 1 µM peptide, E:T 20:1 (% specific lysis): 40
[5]
  % specific lysis by TIL 1235 of T2 target cells preincubated with 1 µM peptide, E:T 20:1 (% specific lysis): 27
[6]
  % specific lysis by TIL 1235 of T2 target cells preincubated with 1 µM peptide, E:T 20:1 (% specific lysis): -1

## Melan-A/MART-1 27-35 epitope-analogue AIGIGLTV (SEQ ID NO: 30) (peptide)
[7]
  Fluorescence Index (HLA-A*0201 stabilization), 25 µM peptide: 1.29
  Fluorescence Index (HLA-A*0201 stabilization), 50 µM peptide: 1.58

## ATWGQYWQV (synthetic; alanine at position 1) [gp100 154-162 epitope-analogue ATWGQYWQV]
[8]
  Fluorescence Index (HLA-A*0201 stabilization), 25 µM peptide: 1.42
  Fluorescence Index (HLA-A*0201 stabilization), 50 µM peptide: 1.94

B1: gp100 154-162 epitope-analogue KIWGQYWQV (peptide)
peptide: KIWGQYWQV
notes: synthetic; N-terminal anchor (position 2) replaced by I
[9]
  Fluorescence Index (HLA-A*0201 stabilization), 25 µM peptide: 1.43
  Fluorescence Index (HLA-A*0201 stabilization), 50 µM peptide: 2
[10]
  Stability (DT 50%): > 4 h
[11]
  IC50: 600 nM

## KTWGQAWQV (synthetic; alanine at position 6) [gp100 154-162 epitope-analogue KTWGQAWQV]
[8]
  Fluorescence Index (HLA-A*0201 stabilization), 25 µM peptide: 1.15
  Fluorescence Index (HLA-A*0201 stabilization), 50 µM peptide: 1.42

## KTAGQYWQV (synthetic; alanine at position 3) [gp100 154-162 epitope-analogue KTAGQYWQV]
[8]
  Fluorescence Index (HLA-A*0201 stabilization), 25 µM peptide: 1.02
  Fluorescence Index (HLA-A*0201 stabilization), 50 µM peptide: 1.17

## KTWGQYAQV (synthetic; alanine at position 7) [gp100 154-162 epitope-analogue KTWGQYAQV]
[8]
  Fluorescence Index (HLA-A*0201 stabilization), 25 µM peptide: 1.14
  Fluorescence Index (HLA-A*0201 stabilization), 50 µM peptide: 1.31

B2: gp100 154-162 epitope-analogue KMWGQYWQV (peptide)
peptide: KMWGQYWQV
notes: synthetic; N-terminal anchor (position 2) replaced by M
[9]
  Fluorescence Index (HLA-A*0201 stabilization), 25 µM peptide: 1.28
  Fluorescence Index (HLA-A*0201 stabilization), 50 µM peptide: 1.73

B3: gp100 154-162 epitope-analogue KLWGQYWQV (peptide)
peptide: KLWGQYWQV
notes: synthetic; N-terminal anchor (position 2) replaced by L
[9]
  Fluorescence Index (HLA-A*0201 stabilization), 25 µM peptide: 1.55
  Fluorescence Index (HLA-A*0201 stabilization), 50 µM peptide: 2.19
[10]
  Stability (DT 50%): > 4 h
[11]
  IC50: 400 nM

## KAWGQYWQV (synthetic; alanine at position 2) [gp100 154-162 epitope-analogue KAWGQYWQV]
[8]
  Fluorescence Index (HLA-A*0201 stabilization), 25 µM peptide: 1.2
  Fluorescence Index (HLA-A*0201 stabilization), 50 µM peptide: 1.57

## KTWGQYWQA (synthetic; alanine at position 9) [gp100 154-162 epitope-analogue KTWGQYWQA]
[8]
  Fluorescence Index (HLA-A*0201 stabilization), 25 µM peptide: 1.02
  Fluorescence Index (HLA-A*0201 stabilization), 50 µM peptide: 1.08

B4: gp100 154-162 epitope-analogue KVWGQYWQV (peptide)
peptide: KVWGQYWQV
notes: synthetic; N-terminal anchor (position 2) replaced by V
[9]
  Fluorescence Index (HLA-A*0201 stabilization), 25 µM peptide: 1.57
  Fluorescence Index (HLA-A*0201 stabilization), 50 µM peptide: 2.13
[10]
  Stability (DT 50%): > 4 h
[11]
  IC50: 800 nM

## KTWGAYWQV (synthetic; alanine at position 5) [gp100 154-162 epitope-analogue KTWGAYWQV]
[8]
  Fluorescence Index (HLA-A*0201 stabilization), 25 µM peptide: 1.25
  Fluorescence Index (HLA-A*0201 stabilization), 50 µM peptide: 1.59

## KTWGQYWAV (synthetic; alanine at position 8) [gp100 154-162 epitope-analogue KTWGQYWAV]
[10]
  Stability (DT 50%): > 4 h
[11]
  IC50: 500 nM
[8]
  Fluorescence Index (HLA-A*0201 stabilization), 25 µM peptide: 1.35
  Fluorescence Index (HLA-A*0201 stabilization), 50 µM peptide: 1.72
